Results on 19 sequences are retold here after the DeepSol protein solubility set.

This data set can be described thus: soluble on expression in E. coli; label from the status in PepcDB or PDB records.
In the case of “MATAEVLNIGKKLYEGKTKEVYELLDSPGKVLLQSKDQITAGNAARKNHLEGKAAISNKITSCIFQLLQEAGIKTAFTRKCGETAFIAPQCEMIPIEWVCRRIATGSFLKRNPGVKEGYKFYPPKVELFFKDDANNDPQWSEEQLIAAKFCFAGLLIGQTEVDIMSHATQAIFEILEKSWLPQNCTLVDMKIEFGVDVTTKEIVLADVIDNDSWRLWPSGDRSQQKDKQSYRDLKEVTPEGLQMVKKNFEWVAERVELLLKSESQCRVVVLMGSTSDLGHCEKIKKACGNFGIPCELRVTSAHKGPDETLRIKAEYEGDGIPTVFVAVAGRSNGLGPVMSGNTAYPVISCPPLTPDWGVQDVWSSLRLPSGLGCSTVLSPEGSAQFAAQIFGLSNHLVWSKLRASILNTWISLKQADKKIRECNL”, the “soluble on expression in E. coli” value is “soluble”.

Take “MATANEHLVAWLRDAHAMEEQAITMLTSQSSRLENYPELKTRIDRHLQETKDQAAMLERCLERLDGGTSSIKDISGKIVAFGQGLSGLFVSDEVVKGTLASYTFEHMEIASYRILIAAAEQAGDQETKRVCESILQQEIAMAEWLAQNAGEITRKFLERDQRDVTAKH”: the “soluble on expression in E. coli” value is listed as “not soluble”.

With “MATDRENLLSDDYEETAAFCGCGYFRSFSFTRWRRGDDESRSRGGWSGCLQEERRGNWGSEKLKGLKEISEKIAGPKWKNFIRSFSSGRKKMRRDVDFTYDLKNYSLNFDDGGDGKDSSPERFVAPVVIKV”, the “soluble on expression in E. coli” value is recorded as “not soluble”.

As to “MATEGMILTNHDHQIRVGVLTVSDSCFRNLAEDRSGINLKDLVQDPSLLGGTISAYKIVPDEIEEIKETLIDWCDEKELNLILTTGGTGFAPRDVTPEATKEVIEREAPGMALAMLMGSLNVTPLGMLSRPVCGIRGKTLIINLPGSKKGSQECFQFILPALPHAIDLLRDAIVKVKEVHDRSHHHHHH”, the “soluble on expression in E. coli” value is recorded as “soluble”.

With “MATFKDFRNSVKPNWCPGCGDFSVQAAIQRAAANVGLNPDELAVISGIGCSGRISGYINSYGVHSIHGRALPIAQGVKMANRDLTVIASGGDGDGFAIGMGHTIHSIRRNIDITYIVMDNQIYGLTKGQTSPRSEAGFKTKSTPQGSIEPSLNVMEMALTAGATFVAQSFSSDLKELTQIIEAGINHKGFSLINVFSPCVTYNKVNTYDWFKENLTKLSTVEGYDPSNRMMAMQTLMENNGLVTGLIYQNTKQPSYQELVKGYSEEPLVKSDLNMDQKMFDELVAEFM”, the “soluble on expression in E. coli” value is reported as “not soluble”.

“MATFVRNAWYVAALPEELSEKPLGRTILDTPLALYRQPDGVVAALLDICPHRFAPLSDGILVNGHLQCPYHGLEFDGGGQCVHNPHGNGARPASLNVRSFPVVERDALIWIWPGDPALADPGAIPDFGCRVDPAYRTVGGYGHVDCNYKLLVDNLMDLGHAQYVHRANAQTDAFDRLEREVIVGDGEIQALMKIPGGTPSVLMAKFLRGANTPVDAWNDIRWNKVSAMLNFIAVAPEGTPKEQSIHSRGTHILTPETEASCHYFFGSSRNFGIDDPEMDGVLRSWQAQALVKEDKVVVEAIERRRAYVEANGIRPAMLSCDEAAVRVSREIEKLEQLEAARLEHHHHHH”: the “soluble on expression in E. coli” value was “soluble”.

Consider “MATGSGSLIWFRKGLRVHDNPALEYASKGSEFMYPVFVIDPHYMESDPSAFSPGSSRAGVNRIRFLLESLKDLDSSLKKLGSRLLVFKGEPGEVLVRCLQEWKVKRLCFEYDTDPYYQALDVKVKDYASSTGVEVFSPVSHTLFNPAHIIEKNGGKPPLSYQSFLKVAGEPSCAKSELVMSYSSLPPIGDIGNLGISEVPSLEELGYKDDEQADWTPFRGGESEALKRLTKSISDKAWVANFEKPKGDPSAFLKPATTVMSPYLKFGCLSSRYFYQCLQNIYKDVKKHTSPPVSLLGQLLWREFFYTTAFGTPNFDKMKGNRICKQIPWNEDHAMLAAWRDGKTGYPWIDAIMVQLLKWGWMHHLARHCVACFLTRGDLFIHWEQGRDVFERLLIDSDWAINNGNWMWLSCSSFFYQFNRIYSPISFGKKYDPDGKYIRHFLPVLKDMPKQYIYEPWTAPLSVQTKANCIVGKDYPKPMVLHDSASKECKRKMGEAYALNKKMDGKVDEENLRDLRRKLQKDEHEESKIRNQRPKLK”, for which the “soluble on expression in E. coli” value was “soluble”.

In the case of “MATIIPTAWQPFKSETPLTTFPFRFPAEWEPQSAILIAWPHANTDWSAHLADVEETYIALVAAITRFQMVIICVLDDDLQTYTEARLRSASVAMQQVRFTVASYNDTWLRDSGPITLIGTNRDFRLLDFRFTGWGGKFEAKADDQLVSVLHANGLFKNTQMHSINFALEGGAIETDGAGTLLTTWRCLHERHPQRTRKTLDANLTAWLAQNRVLWLEHGYLEGDDTDAHIDTLARFASTDSIVYQSCDNTTDSHYAELQAMANELTALRTTEGRAYRLFPLPWTKPILDQDRRLPASYANFLIIEGAVLMPTYDDPADTIAQSVLAEAFP”, the “soluble on expression in E. coli” value is listed as “not soluble”.

For “MATLYDVPPEELIEALTETLADEDDIEAPDWAEFTKTGVDRELPPEQEDFWTRRAASLLRKVAVDGPVGVNALRSEYGTSKQGTTRYRVRPHQKTKGSGNIIRTALQQLEDAGYVETSENDGRRVTGDGRSLLDDTAGDLLTELDRPELERYALEHHHHHH”, the “soluble on expression in E. coli” value is recorded as “soluble”.

Turning to “MATNIGMMDSAYFVGRNEILTWINDRLHLNLSRVEEAASGAVQCQMLDMTFPGVVPMHKLVDLKISTDLLEKERDFYFSKLRDVEILCQTPELDDLPVNVSVEPIVVAVKKILYATDANESALEDAQEYLNQSLGVEDDEAEGNGEQLEEEKTQA”, the “soluble on expression in E. coli” value is recorded as “soluble”.

For the sequence “MATPDTSAAKMAGQDRQKLKVVAWLQNLVERLKGWTPGHCQKLFDEKELIQLCYRAREVFWKNNVKLELKAPVKICGDLHGQYEDLLALLELNGWPPETKYLFLGDYVDRGPFSIEVISLLFAYQVLHPDKVFLLRGNHESRPVNMQYGFFMECRKRFSNALYDAFQLAFYCMPLCAVVSDKIICMHGGISEDLVDLRQLDKVERPCDVPDIGVIADLTWADPDATIQMYAESQRGAGRVFGAEAVKKFLNTHHLELVVRAHQVVMDGYEFFADRQLVTIFSAPSYCGQMDNAAAVMTVDEELVCSFTVMRPDLKKDKEKKAAVGIVPN”, the “soluble on expression in E. coli” value is recorded as “not soluble”.

Take “MATRLLRTNFIRRSYRLPAFSPVGPPTVTASTAVVPEILSFGQQAPEPPLHHPKPTEQSHDGLDLSDQARLFSSIPTSDLLRSTAVLHAAAIGPMVDLGTWVMSSKLMDASVTRGMVLGLVKSTFYDHFCAGEDADAAAERVRSVYEATGLKGMLVYGVEHADDAVSCDDNMQQFIRTIEAAKSLPTSHFSSVVVKITAICPISLLKRVSDLLRWEYKSPNFKLSWKLKSFPVFSESSPLYHTNSEPEPLTAEEERELEAAHGRIQEICRKCQESNVPLLIDAEDTILQPAIDYMAYSSAIMFNADKDRPIVYNTIQAYLRDAGERLHLAVQNAEKENVPMGFKLVRGAYMSSEASLADSLGCKSPVHDTIQDTHSCYNDCMTFLMEKASNGSGFGVVLATHNADSGRLASRKASDLGIDKQNGKIEFAQLYGMSDALSFGLKRAGFNVSKYMPFGPVATAIPYLLRRAYENRGMMATGAHDRQLMRMELKRRLIAGIA”: the “soluble on expression in E. coli” value is “not soluble”.

Take “MATSFPVLCLPNKNIRDVLQNMSTCNLIAFSLCSKATKSHVMHLKNDIQQISIKAFLSIDINILSHNQEVTSLVFFKKDYGRWNFESCESVTATETLTPLEPESDRVWVKRGFKLRDWIDHVMEIFNCSRIHEIYISRIGHEEHYISLSNAVKELKTETIFFSFCSDTVVQSVVANVQSNDISFNLSFNIEPSMQKHKVLTRHFERVSFSKDDTREALTLNDLLITNVSQLNISAHHLSFEELNIFIRHLISGSNRRLKIVGIVCAEATRNMQILLKGISHSVYSAELKIVARNENDYQLGDTIYVYQNCGRRLAMQTYLFEGVEKIVMRVY”: the “soluble on expression in E. coli” value is listed as “not soluble”.

For “MATSRFQAFLNSPIGPKTTHFWGPIANWGFVAAGLVDMQKPPEMISGNMSSAMCVYSALFMRFAWMVQPRNYLLLACHASNETVQLYQLSRWARAQGYLSSKKEEEKPSQ”, the “soluble on expression in E. coli” value was “not soluble”.

Regarding “MATYLIGDVHGCYDELIALLHKVEFTPGKDTLWLTGDLVARGPGSLDVLRYVKSLGDSVRLVLGNHDLHLLAVFAGISRNKPKDRLTPLLEAPDADELLNWLRRQPLLQIDEEKKLVMAHAGITPQWDLQTAKECARDVEAVLSSDSYPFFLDAMYGDMPNNWSPELRGLGRLRFITNAFTRMRFCFPNGQLDMYSKESPEEAPAPLKPWFAIPGPVAEEYSIAFGHWASLEGKGTPEGIYALDTGCCWGGSLTCLRWEDKQYFVQPSNRHKDLGEGEAVAS”, the “soluble on expression in E. coli” value is “soluble”.

As to “MAVDVPGIISPKTAEAASQLTDGIGGRAYLNSNGAILVTKIQLPSSTQVSNGTAYIYSGFSGGTESDIGFQYSDKYNVWKPYMKVGSKGQDQVQYLEGGSQFTNTKGFRPGSTVQLTIYKNLNGNTRATYWGTNNAGYNGRLISEISKTNVGSISKWKALATVATTGSRQSIKSNFSTSFTNITIDNKAITPVIDTQDFAKVTVSGNSVSLSVVKNLEHHHHHH”, the “soluble on expression in E. coli” value was “soluble”.

As to “MAVLAALLRSGARSRSPLLRRLVQEIRYVERSYVSKPTLKEVVIVSATRTPIGSFLGSLSLLPATKLGSIAIQGAIEKAGIPKEEVKEAYMGNVLQGGEGQAPTRQAVLGAGCDGGRWDGEHVHVPYVMNRGSTPYGGVKLEDLIVKDGLTDVYNKIHMGSCAENTAKKLNIARNEQDAYAINSYTRSKAAWEAGKFGNEVIPVTVTVKGQPDVVVKEDEEYKRVDFSKVPKLKTVFQKENGTVTAANASTLNDGAAALVLMTADAAKRLNVTPLARIVGKARRGGSHL”, the “soluble on expression in E. coli” value is on record as “not soluble”.

As for “MAVNVYSTSVTSENLSRHDMLAWVNDSLHLNYTKIEQLCSGAAYCQFMDMLFPGCVHLRKVKFQAKLEHEYIHNFKVLQAAFKKMGVDKIIPVEKLVKGKFQDNFEFIQWFKKFFDANYDGKDYNPLLARQGQDVAPPPNPGDQIF”, the “soluble on expression in E. coli” value is “soluble”.

As for “MAVPAASSIVSYGGAATSNFLTTPVTPFLAGFYNSNFVTDRINSCAPYRVDRIRKQLQDEEENGYPPADDRRRGALFCRSGTWLEMLPIENPDDGSTRVKVHGTKEESSKFSIVEFVSVAMSLVSIRGVETKNFICMDPSGKLYATPSSNYSTECVFLEEMMENYYNLYASCAYGDRFNPWYIELRRSGKPRRGPNSKKRRKASHFLVVHHDLDRLRSPVPNGNDVTDLVVASLFHQPPSHPLFRQQTVTKPPNPHRISNLRAKVEMTNQAEKQRLLEEKKRRREKKKRRREDRLRKEEQIREARRQELKSLREEELRRRYQQQQQQQASTQTRYNRPQNPANPYPTYRPLPTRSTVQSPRPAYNPYWQSPVTQAPHHNSHHHHHHHPRVSSSSDPQQRHQSQQHYLAQTVSNPNRQNVNYQRYP”, the “soluble on expression in E. coli” value is “not soluble”.
